Laboratory results reported in PMC10996437.
Like-named read-outs stand apart in the source and are kept apart here.

Assays:
[1] = target: Poly-His tagged murine FAM72A (mouse) (UniProt Q8BFZ8); assay: BLI
[2] = target: Poly-His tagged murine FAM72A (mouse) (UniProt Q8BFZ8); assay: BLI; remark: listed apart in the source

UniProt Q8BFZ8, sequence (Q8BFZ8 whole entry): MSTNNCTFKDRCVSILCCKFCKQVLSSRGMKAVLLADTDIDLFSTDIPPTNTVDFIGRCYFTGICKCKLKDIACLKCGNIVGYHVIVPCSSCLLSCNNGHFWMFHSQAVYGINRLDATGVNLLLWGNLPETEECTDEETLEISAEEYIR

With “synthetic polypeptide containing the first 25 aa of mUNG2, C-terminal biotin” the Kd [1] was 1.9 nM, the koff [1] was 0.037 s⁻¹ and the Kd [2] was 188 nM.
Work on “murine uracil-DNA glycosylase, nuclear form (mUNG2), untagged (enzyme)” yielded a Kd [1] of 600 nM, a koff [1] of 0.023 s⁻¹ and a kon [1] of 43000 M⁻¹ s⁻¹.
